Consider one molecule from paper PMC11077089, “Molecular basis of A. thaliana KEOPS complex in biosynthesizing tRNA t6A”.

One data set concerns the target T1, KAE1;BUD32;PCC1 (Arabidopsis thaliana;Arabidopsis …, UniProt O49653;Q94K14;Q8GWD7 1-353;1-226;1-96, ||).
T1 sequence 1: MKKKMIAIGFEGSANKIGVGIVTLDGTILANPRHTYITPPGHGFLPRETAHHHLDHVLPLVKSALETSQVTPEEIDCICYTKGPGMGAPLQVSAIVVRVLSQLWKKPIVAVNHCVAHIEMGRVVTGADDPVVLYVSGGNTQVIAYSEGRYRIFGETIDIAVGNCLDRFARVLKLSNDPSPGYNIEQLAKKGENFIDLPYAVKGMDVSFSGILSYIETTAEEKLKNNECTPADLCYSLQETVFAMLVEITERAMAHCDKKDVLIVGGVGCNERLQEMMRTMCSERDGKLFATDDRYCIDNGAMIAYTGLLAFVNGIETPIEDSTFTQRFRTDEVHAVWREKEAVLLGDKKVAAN
T1 sequence 2: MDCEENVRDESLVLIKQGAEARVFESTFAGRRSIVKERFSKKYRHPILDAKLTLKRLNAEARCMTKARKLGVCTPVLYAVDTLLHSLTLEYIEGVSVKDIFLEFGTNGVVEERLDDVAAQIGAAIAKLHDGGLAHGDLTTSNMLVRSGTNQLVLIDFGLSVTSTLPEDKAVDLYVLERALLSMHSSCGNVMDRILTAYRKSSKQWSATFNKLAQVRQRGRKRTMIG
T1 sequence 3: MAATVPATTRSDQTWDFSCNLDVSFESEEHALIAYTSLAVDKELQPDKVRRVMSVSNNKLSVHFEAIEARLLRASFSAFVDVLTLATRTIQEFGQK
Kind of data set: MST; MST: 20 mM PBS pH 7.5, 300 mM NaCl, 0.05% Tween 20, 25 C, 50 nM RNA; EMSA: 20 mM Tris-HCl pH 7.5, 300 mM NaCl, 5 mM b-mercaptoethanol, 20% glycerol, agarose gel in Tris-glycine pH 8.0 (8.5 for FAM-RNA), 4 C. The following applies: protein: recombinant;recombinant;recombinant; tags: none (6His on partner PCC1);none (6His on partner CGI121);6His (C-term); chain copies: 2;2;2; label: 5' 6-FAM; tRNA cloverleaf. Background: A gel shift assay detects complexes by their altered migration in electrophoresis.

In data set [1] the target is T2, KAE1;BUD32 N58R;CGI121;PCC1 (Arabidopsis thaliana;Arabidopsis …, UniProt O49653;Q94K14;Q6NMZ4;Q8GWD7 1-353;1-226;1-172;1-96, |N58R||).
T2 sequence 1: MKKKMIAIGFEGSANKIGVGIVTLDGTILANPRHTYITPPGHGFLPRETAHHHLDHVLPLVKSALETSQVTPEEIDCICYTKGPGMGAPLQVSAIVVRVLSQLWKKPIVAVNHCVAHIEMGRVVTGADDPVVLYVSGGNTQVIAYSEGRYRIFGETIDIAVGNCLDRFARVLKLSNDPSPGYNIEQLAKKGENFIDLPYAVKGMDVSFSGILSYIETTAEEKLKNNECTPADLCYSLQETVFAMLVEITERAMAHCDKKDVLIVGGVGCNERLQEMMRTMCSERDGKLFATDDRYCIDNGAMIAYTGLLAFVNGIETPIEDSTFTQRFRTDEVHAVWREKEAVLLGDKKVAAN
T2 sequence 2: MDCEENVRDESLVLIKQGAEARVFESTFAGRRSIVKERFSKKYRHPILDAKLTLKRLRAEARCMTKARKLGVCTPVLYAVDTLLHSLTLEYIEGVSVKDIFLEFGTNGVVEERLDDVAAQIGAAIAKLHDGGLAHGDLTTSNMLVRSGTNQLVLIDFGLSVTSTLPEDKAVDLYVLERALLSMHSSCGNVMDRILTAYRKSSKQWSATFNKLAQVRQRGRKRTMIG
T2 sequence 3: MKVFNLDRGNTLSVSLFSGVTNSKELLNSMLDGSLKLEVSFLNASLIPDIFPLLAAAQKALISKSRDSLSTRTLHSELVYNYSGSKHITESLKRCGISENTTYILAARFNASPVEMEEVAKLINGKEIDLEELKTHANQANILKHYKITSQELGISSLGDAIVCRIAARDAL
T2 sequence 4: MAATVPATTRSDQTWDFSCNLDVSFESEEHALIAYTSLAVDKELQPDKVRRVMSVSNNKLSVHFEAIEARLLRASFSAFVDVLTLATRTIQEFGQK
The data set is described as above. The following applies: protein: recombinant;recombinant;recombinant;recombinant; tags: none (6His on partner PCC1);;6His (C-term);6His (C-term); chain copies: 2;2;2;2; label: 5' 6-FAM; tRNA cloverleaf.

The target of data set [2] is T3, KAE1;BUD32 K51E;CGI121;PCC1 (Arabidopsis thaliana;Arabidopsis …, UniProt O49653;Q94K14;Q6NMZ4;Q8GWD7 1-353;1-226;1-172;1-96, |K51E||).
T3 sequence 1: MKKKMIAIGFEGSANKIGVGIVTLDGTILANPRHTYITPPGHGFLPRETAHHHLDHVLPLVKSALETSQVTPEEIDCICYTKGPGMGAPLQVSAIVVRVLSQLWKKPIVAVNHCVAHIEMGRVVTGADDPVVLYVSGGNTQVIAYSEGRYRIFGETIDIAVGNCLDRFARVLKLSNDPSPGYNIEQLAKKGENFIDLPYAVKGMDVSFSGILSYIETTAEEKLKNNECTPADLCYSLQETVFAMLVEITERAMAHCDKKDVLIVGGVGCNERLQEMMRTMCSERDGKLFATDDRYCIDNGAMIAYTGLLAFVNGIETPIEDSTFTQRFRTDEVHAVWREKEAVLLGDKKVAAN
T3 sequence 2: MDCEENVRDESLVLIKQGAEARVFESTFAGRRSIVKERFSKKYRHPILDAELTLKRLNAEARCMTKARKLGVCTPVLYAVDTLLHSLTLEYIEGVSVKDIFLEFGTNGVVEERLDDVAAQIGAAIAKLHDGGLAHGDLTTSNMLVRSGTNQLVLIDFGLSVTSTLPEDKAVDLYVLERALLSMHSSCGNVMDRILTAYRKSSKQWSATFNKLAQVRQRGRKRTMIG
T3 sequence 3: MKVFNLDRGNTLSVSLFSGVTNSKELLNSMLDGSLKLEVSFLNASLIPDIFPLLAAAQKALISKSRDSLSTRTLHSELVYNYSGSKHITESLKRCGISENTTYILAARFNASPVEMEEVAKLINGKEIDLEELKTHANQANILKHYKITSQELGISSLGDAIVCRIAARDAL
T3 sequence 4: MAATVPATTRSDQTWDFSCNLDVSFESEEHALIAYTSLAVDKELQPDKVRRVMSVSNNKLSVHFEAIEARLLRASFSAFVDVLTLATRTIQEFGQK
The description is as above. The conditions noted are these: protein: recombinant;recombinant;recombinant;recombinant; tags: none (6His on partner PCC1);;6His (C-term);6His (C-term); chain copies: 2;2;2;2; label: 5' 6-FAM; tRNA cloverleaf.

Data set [3] addresses T4, KAE1 K202R;BUD32;CGI121;PCC1 (Arabidopsis thaliana;Arabidopsis …, UniProt O49653;Q94K14;Q6NMZ4;Q8GWD7 1-353;1-226;1-172;1-96, K202R|||).
T4 sequence 1: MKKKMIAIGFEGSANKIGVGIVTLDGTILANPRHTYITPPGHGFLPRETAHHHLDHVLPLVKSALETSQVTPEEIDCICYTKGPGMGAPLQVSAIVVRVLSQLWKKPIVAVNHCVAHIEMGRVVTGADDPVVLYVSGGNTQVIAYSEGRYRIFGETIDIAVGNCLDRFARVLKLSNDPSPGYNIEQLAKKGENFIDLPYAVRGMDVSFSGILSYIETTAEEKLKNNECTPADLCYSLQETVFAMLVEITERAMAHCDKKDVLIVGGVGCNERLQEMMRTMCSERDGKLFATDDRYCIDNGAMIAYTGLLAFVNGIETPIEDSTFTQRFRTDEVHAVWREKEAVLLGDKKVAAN
T4 sequence 2: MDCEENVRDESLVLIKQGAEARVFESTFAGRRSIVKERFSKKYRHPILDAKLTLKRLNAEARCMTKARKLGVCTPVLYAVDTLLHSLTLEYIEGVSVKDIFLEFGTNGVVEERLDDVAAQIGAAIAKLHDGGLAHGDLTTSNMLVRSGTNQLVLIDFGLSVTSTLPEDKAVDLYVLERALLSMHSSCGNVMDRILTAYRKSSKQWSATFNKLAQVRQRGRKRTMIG
T4 sequence 3: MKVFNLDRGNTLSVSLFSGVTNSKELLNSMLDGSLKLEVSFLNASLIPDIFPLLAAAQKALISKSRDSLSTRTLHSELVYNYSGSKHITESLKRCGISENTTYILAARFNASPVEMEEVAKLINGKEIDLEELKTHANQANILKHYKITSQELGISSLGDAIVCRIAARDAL
T4 sequence 4: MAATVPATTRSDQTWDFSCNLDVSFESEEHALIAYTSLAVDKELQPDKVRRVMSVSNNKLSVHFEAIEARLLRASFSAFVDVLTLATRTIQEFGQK
Kind of data set: EMSA; 1:5 RNA:protein; MST: 20 mM PBS pH 7.5, 300 mM NaCl, 0.05% Tween 20, 25 C, 50 nM RNA; EMSA: 20 mM Tris-HCl pH 7.5, 300 mM NaCl, 5 mM b-mercaptoethanol, 20% glycerol, agarose gel in Tris-glycine pH 8.0 (8.5 for FAM-RNA), 4 C. The conditions noted are these: protein: recombinant;recombinant;recombinant;recombinant; tags: ;none (6His on partner CGI121);6His (C-term);6His (C-term); chain copies: 2;2;2;2; label: 5' 6-FAM; tRNA cloverleaf.

B1: 5'-6FAM-tRNAArgCCU (structured_RNA)
RNA: GCGCCUGUAGCUCAGUGGAUAGAGCGUCUGUUUCCUAAGCAGAAGGUCGUAGGUUCGACCCCUACCUGGCGCGCCA
Usually Kd stands for a measure of binding affinity in units of concentration. B1: the Kd in the data set with KAE1;BUD32;PCC1 came out at 38 ± 13.6 µM; in data set [1] it was 9.81 ± 2.73 µM; in data set [2], 29.8 ± 10.7 µM. Also, the binding result in data set [3] was “binds”.
